# Experimental data from patent US20160002619A1 (CORNELL UNIVERSITY, published 2016).
# Positions count from the first letter of the chain named. Names may count otherwise.
# B1: unlabeled wild type mouse GAC (glutaminase C, residues 72-603) (enzyme)
# chain: LSSSPSEILQELGKGGTPPQQQQQQQQQPGASPPAAPGPKDSPGETDAFGNSEGKEMVAAGDNKIKQGLLPSLEDLLFYTIAEGQEKIPVHKFITALKSTGLRTSDPRLKECMDMLRLTLQTTSDGVMLDKDLFKKCVQSNIVLLTQAFRRKFVIPDFMSFTSHIDELYESAKKQSGGKVADYIPQLAKFSPDLWGVSVCTVDGQRHSIGDTKVPFCLQSCVKPLKYAIAVNDLGTEYVHRYVGKEPSGLRFNKLFLNEDDKPHNPMVNAGAIVVTSLIKQGVNNAEKFDYVMQFLNKMAGNEYVGFSNATFQSERESGDRNFAIGYYLKEKKCFPEGTDMVGILDFYFQLCSIEVTCESASVMAATLANGGFCPITGERVLSPEAVRNTLSLMHSCGMYDFSGQFAFHVGLPAKSGVAGGILLVVPNVMGMMCWSPPLDKMGNSVKGIHFCHDLVSLCNFHNYDNLRHFAKKLDPRREGGDQRHSFGPLDYESLQQELALKDTVWKKVSPESSDDTSTTVVYRMESLGERS
# notes: Recombinant; His-tag cleaved with thrombin; The oligomeric state depends on concentration and phosphate; also called WT-GAC; WT GAC
# B2: Δ72 K316E-GAC (enzyme)
# glutaminase C subunit: B1 chain with K245E
# notes: Unlabeled single mutant of the mouse GAC construct
# B3: unlabeled mouse GAC D391K (constitutive dimer mutant) (enzyme)
# chain: B1 chain with D320K
# notes: also called D391K-GAC
# How the values were obtained:
# [1] = target: the molecule itself; test: SEC-MALS, self-association
# Excerpt: FIGS. 4A-F define the oligomeric species of GAC mutants. In particular, multi-angle light scattering profiles of WT-GAC (FIG. 4A), D391K-GAC (FIG. 4B), K316E-D391K-R459E-GAC (FIG. 4C), and K316E-GAC (FIG. 4D) were obtained following SEC and subsequent MALS analysis, where elution of each species was monitored using refractive index (left axis). Upon elution, light scattering data was collected and then used to calculate the molecular weight and polydispersity for the species eluted (right axis). Reference lines for the molecular weights of the monomer, dimer, and tetramer forms of GAC are included at 58 kD, 116 kD, and 230 kD respectively. […]
# Purified GAC and GAC mutants were subjected to analytical size exclusion chromatography on a Superdex 200 10/300 GL column (GE Healthcare) equilibrated with 20 mM Tris-HCl pH 8.5, 200 mM NaCl for experiments in the absence of inorganic phosphate and 20 mM Tris-HCl pH 8.5, 200 mM NaCl, 50 mM K₂HPO₄ for experiments in the presence of inorganic phosphate at a temperature of 4° C. and flow rate of 0.4 ml/min. […] RMS radius and mass distribution (polydispersity) was analyzed using the ASTRA software using monomeric BSA (Sigma) to normalize the light scattering signal.
# [2] = target: the molecule itself; test: analytical gel filtration (Superdex 200 10/300 GL), self-association
# Method: FIGS. 3A-C illustrate that WT GAC accesses monomer, dimer, and larger oligomeric species in a concentration and phosphate dependent manner.
# Purified GAC and GAC mutants were subjected to analytical size exclusion chromatography on a Superdex 200 10/300 GL column (GE Healthcare) equilibrated with 20 mM Tris-HCl pH 8.5, 200 mM NaCl for experiments in the absence of inorganic phosphate and 20 mM Tris-HCl pH 8.5, 200 mM NaCl, 50 mM K₂HPO₄ for experiments in the presence of inorganic phosphate at a temperature of 4° C. and flow rate of 0.4 ml/min. Protein concentrations were prepared to be either 5 mg/mL or 0.5 mg/mL and centrifuged at 10,000×g for 10 minutes prior to injecting 200 μL of each sample. The same protocol was followed for MALS analysis. Briefly, 50 μL samples of 0.5, 5, or 10 mg/mL GAC was injected onto a WTC-030S5 size exclusion column (Wyatt technology) coupled to a static 18-angle light scattering detector (DAWN HELEOS-II) and a refractive index detector (OptiLab T-rEX, Wyatt Technology) kept at 23° C. The flow rate was kept at 1 mL/min. RMS radius and mass distribution (polydispersity) was analyzed using the ASTRA software using monomeric BSA (Sigma) to normalize the light scattering signal.
Protein,binding result [1],"concentration dependent activation of WT-GAC (glutaminase activity, two-step assay, no phosphate)","glutaminase specific activity (µM Glu/µM GAC min) of 50 nM WT-GAC, two-step assay, 20 mM glutamine, phosphate varied","glutaminase specific activity (µM Glu/µM GAC min), two-step assay, 20 mM glutamine, no phosphate",binding result [2],"concentration dependent activation (glutaminase activity, 20 mM glutamine, no phosphate)"
B1,binds,The quenching was shown to be concentration dependent with the resultant FRET titration curve strongly correlating with the concentration dependent activation of WT-GAC,specific activity (filled circles) rises from about 500 near 3 mM phosphate to about 5000 at 20 mM and 8000 at 45 mM; it is flat at about 8700 from 67 to 150 mM,"specific activity (filled circles) rises from about 100 at 50 nM GAC to about 290 at 230 nM, 410 at 510 nM and about 460-470 at 770 and 1150 nM, lying on the FRET points",,
B2,binds,,,,,
B3,,,,,binds,no concentration dependent activation was observed of purified GAC mutants
